# Reference: US20060293243A1, “Stable, buffered, pharmaceutical compositions including motilin-like peptides” (priority 2005, published 2006)
# Non-standard residues stand in square brackets, D forms with d. Me3N+ = N-terminal trimethylammonium
# How the values were obtained:
# Assay type in all cases: physicochemical
# [1] = Stability of lyophilized formulations of motilin-like peptide compositions (HPLC after reconstitution in water); conditions: 30 μg/ml in 10 mM citrate buffer, 1% w/v sucrose, pH 6.0, stored in 20 ml vial at 40° C. for several months, reconstituted in water
# Procedure: The motilin-like peptide including SEQ ID NO.: 1 was dissolved at a concentration of 30 μg/ml in 10 mM citrate buffer and 1% w/v of sucrose (bulking agent) at pH 6.0. The composition was lyophilized by standard techniques and stored in a 20 ml vial at 40° C. The potency of the motilin-like peptide was measured at the time intervals indicated in FIG. 5, by reconstituting the composition in water. Potency was determined by using HPLC to measure the amount of undegraded peptide remaining in each sample. […] Again, it will be appreciated by those skilled in the art that the stability of pharmaceutical compositions at elevated temperatures, such as 40° C. as in FIG. 5, may serve as the basis of prediction of stability for longer periods at more typical storage temperatures, such as approximately 20° C.-25° C. or 4° C.-8° C., for example.
# [2] = Stability of motilin-like peptide following autoclaving and storage (HPLC, undegraded peptide remaining); conditions: 30 μg/ml in 10 mM sodium acetate buffer, pH 5.0; Type I glass vials; autoclaved at 121° C. for 15 minutes; storage for 3 months at 55° C.
# Procedure: The motilin-like peptide of SEQ ID NO.: 1 was dissolved at a concentration of 30 μg/ml in 10 mM sodium acetate buffer, pH 5.0. Samples of the peptide solution stored in Type I glass vials were autoclaved at 121° C. for 15 minutes and the autoclaved samples were incubated at 5° C., 25° C., 40° C., or 55° C. The potency of the peptide following storage at each temperature was measured over time by testing samples after incubation of one week, two weeks, three weeks, one month and three months. Potency was determined by using HPLC to measure the amount of undegraded peptide remaining in each sample.
# It will be appreciated by those skilled in the art that stability data obtained at such elevated temperatures (i.e., accelerated storage conditions) may be used to predict stability at lower, more typical storage temperatures over extended periods of time.
# [3] = Degradation during storage as a function of composition pH; conditions: pH approximately 3 to 9, most preferably approximately 4.8-5.2
# Procedure: In one embodiment, where the composition is provided in a “ready-to-use” form, the motilin-like peptide is dissolved in a buffer solution to provide an aqueous composition. […] More preferably, the pH of the pharmaceutical compositions is between approximately 4 and 6, more preferably 4.5 and 5.5 and, most preferably, between approximately 4.8-5.2. At these pH levels, the peptide of SEQ. ID. […] (The preferred pH of the composition may also be determined, in part, based on whether the composition is prepared as an aqueous composition or a lyophilized formulation, discussed below.)
# [4] = Stability profile of aqueous composition stored in Schott Type 1 glass vials (FIGS. 3 and 4); conditions: Schott Type 1 vials
# Excerpt: Some plastics have also proven to be effective in assisting in the stabilization of the peptide composition. In this regard, preferred plastics are cyclic olefin copolymers, available, for example, from West Pharmaceuticals under the product name CZ resin vials, or from Schott under the product name TopPac vials, or from Alcan packaging under the product name Ticona Topas serum vials. The compositions of the present invention may also be stored in PVC, as well as non-PVC flexible bags. When stored in the above described glass or plastic containers, the above-described storage times at the above-described storage temperatures can be achieved, although for storage periods of at least 18 months, Type I Plus (vapor treated silicon) vials and Type I Plus glass ampules are preferred. […] It will be appreciated by those skilled in the art that the measured stability of pharmaceutical compositions at elevated temperatures, such as 40° C. or higher, may serve as the basis of prediction of stability for longer periods at more typical storage temperatures, such as 20°-25° C. or 4°-8° C., for example. Such “accelerated storage” studies are common in the field of the present invention.
substance,measurement,setting,value
"(Me3N) ^+Phe-Val-Pro-Ile-Phe-Thr-Tyr-Gly-Glu-Leu-Gln-D-Arg-Leu-Lys-NH2 ({Me3N+}-FVPIFTYGELQ[dR]LK-NH2) [SEQ ID NO.: 1, synthetic motilin-like peptide receptor agonist]",potency retained (amount of undegraded peptide remaining by HPLC),[1],greater than 90%
same,potency retained (amount of undegraded peptide remaining by HPLC),[2],greater than 90%
same,degradation during storage,[3],only minimal degradation
same,stability (maintenance of high levels of potency),"[4]; 30 μg/ml, several months at 5° C. to 55° C. (FIG. 4)",demonstrated stability
same,stability (maintenance of high levels of potency),"[4]; approximately 5 μg/ml, several months at 5° C. to 55° C. (FIG. 3)",demonstrated stability
